Assay [1] has as its target human gastric mucin MUC6 (human (endogenous in gastric corpus tissue)) (UniProt Q6W4X9). The assay can be described thus: far-Western, overlay or dot blot; as the overlay on fractions B12/C1, but with 30 mM EDTA and no added Ca2+.
The target of assay [2] is mucins (PAS-positive high-molecular-mass peak of human gastric extracts, containing MUC5AC and MUC6). Description: SEC + native gel or EMSA; human gastric extracts (conventional extract, extract E1) on Superdex 75 HL, 20 mM Tris-HCl pH 7.0, 30 mM NaCl; fractions analysed by 1% AgGE and Western blot; semi-quantitative TFF2 content.

Sequence of UniProt Q6W4X9 (Q6W4X9 23-2439): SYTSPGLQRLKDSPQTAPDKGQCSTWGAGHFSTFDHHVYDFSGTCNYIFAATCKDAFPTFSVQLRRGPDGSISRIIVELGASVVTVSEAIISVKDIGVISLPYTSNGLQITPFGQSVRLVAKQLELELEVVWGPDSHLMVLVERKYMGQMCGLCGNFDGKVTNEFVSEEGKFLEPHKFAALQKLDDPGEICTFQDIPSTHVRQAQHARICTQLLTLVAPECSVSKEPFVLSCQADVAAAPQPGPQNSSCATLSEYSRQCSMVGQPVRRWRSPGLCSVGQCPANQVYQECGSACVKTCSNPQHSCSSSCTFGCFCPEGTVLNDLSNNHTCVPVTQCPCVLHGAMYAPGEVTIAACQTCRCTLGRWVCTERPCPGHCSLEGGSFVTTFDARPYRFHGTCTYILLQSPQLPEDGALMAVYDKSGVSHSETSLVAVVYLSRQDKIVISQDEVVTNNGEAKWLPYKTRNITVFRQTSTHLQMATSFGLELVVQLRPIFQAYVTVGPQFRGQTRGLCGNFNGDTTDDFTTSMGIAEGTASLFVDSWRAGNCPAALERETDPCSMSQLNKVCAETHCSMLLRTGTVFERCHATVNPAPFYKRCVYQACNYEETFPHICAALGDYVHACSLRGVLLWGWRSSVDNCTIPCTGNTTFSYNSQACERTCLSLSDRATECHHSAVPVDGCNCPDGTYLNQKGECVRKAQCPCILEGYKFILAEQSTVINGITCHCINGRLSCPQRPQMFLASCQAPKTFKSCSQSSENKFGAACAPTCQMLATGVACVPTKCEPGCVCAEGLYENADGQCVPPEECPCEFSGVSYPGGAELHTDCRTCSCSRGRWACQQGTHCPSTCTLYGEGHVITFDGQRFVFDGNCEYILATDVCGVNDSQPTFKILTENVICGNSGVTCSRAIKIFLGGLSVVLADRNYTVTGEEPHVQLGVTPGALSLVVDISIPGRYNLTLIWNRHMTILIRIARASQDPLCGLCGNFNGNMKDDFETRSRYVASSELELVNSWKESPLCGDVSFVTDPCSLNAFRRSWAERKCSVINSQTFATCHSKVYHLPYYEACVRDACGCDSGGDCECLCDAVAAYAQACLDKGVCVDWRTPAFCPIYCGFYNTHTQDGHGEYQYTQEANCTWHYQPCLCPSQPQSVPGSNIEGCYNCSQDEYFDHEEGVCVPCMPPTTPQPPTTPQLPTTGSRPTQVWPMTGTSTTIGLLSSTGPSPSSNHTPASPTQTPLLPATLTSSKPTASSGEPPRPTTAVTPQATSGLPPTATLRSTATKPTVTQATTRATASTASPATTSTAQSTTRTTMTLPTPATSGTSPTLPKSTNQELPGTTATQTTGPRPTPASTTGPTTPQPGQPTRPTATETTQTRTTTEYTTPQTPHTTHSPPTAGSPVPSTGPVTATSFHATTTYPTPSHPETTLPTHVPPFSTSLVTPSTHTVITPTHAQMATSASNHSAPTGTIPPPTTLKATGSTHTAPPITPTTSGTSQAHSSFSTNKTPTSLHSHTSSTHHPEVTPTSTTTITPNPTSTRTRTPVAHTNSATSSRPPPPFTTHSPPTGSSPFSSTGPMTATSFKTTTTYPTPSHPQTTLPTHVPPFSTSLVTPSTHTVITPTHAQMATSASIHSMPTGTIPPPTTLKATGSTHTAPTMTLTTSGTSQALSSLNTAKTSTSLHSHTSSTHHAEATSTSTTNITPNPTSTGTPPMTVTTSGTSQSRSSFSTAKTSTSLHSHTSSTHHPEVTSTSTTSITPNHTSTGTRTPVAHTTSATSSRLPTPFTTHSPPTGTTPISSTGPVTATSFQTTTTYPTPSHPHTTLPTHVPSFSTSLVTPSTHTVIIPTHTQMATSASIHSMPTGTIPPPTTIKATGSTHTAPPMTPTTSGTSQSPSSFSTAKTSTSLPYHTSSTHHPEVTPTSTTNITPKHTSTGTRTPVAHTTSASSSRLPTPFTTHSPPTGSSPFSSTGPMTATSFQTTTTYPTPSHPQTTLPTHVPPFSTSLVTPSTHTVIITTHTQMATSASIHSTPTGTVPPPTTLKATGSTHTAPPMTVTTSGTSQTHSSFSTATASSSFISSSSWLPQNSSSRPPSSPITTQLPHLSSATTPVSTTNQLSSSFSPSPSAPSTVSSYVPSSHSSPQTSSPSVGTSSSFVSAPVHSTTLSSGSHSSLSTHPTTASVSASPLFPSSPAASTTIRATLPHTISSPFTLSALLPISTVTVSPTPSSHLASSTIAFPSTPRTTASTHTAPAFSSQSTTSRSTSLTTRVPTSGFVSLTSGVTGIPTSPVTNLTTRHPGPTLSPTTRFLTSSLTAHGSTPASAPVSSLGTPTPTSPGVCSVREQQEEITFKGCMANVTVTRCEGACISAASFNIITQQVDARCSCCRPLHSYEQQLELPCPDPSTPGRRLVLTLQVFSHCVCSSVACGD

For “125I-labeled recombinant human glycosylated TFF2 (from UniProt Q03403 24-129) (natural protein)”, the relative amount of TFF2 bound with 30 mM EDTA in assay [1] came to 10%.

B1: human gastric TFF2 (endogenous) (natural protein)
chain: EKPSPCQCSRLSPHNRTNCGFPGITSDQCFDNGCCFDSSVTGVPWCFHPLPKQESDQCVMEVSDRRNCGYPGISPEECASRKCCFSNFIFEVPWCFFPKSVEDCHY
modifications: mainly N-glycosylated, to a minor extent non-glycosylated
For B1, the percent of TFF2 in the high-molecular-mass form (extract E1) in assay [2] amounted to 86%.

The values above are taken from article PMC6928932.
